Reference: patent publication US20190010498, “CHEMICALLY MODIFIED AMPA RECEPTOR RNA APTAMERS” (The Research Foundation for the State University of New York, published 2019)

Experiments:
[1] = molecular target: T1, GluA2Qflip AMPA receptor (homomeric, Q/R site unedited) (UniProt P19491-2 P19491-2:22-883); assay: competition; homologous competition with 32P-FN1040, nylon filter; 150 mM NaCl, 3 mM KCl, 1 mM CaCl2, 1 mM MgCl2, 10 mM HEPES pH 7.4; 10 ng/ul tRNA; NBQX displaces about 50%, glutamate about 30%, BDZ-f/BDZ-g none; settings: tags: transiently expressed in HEK-293S cells; chain copies: 4 inferred
T1 sequence (P19491 other isoform, or with tags, fused parts or gaps): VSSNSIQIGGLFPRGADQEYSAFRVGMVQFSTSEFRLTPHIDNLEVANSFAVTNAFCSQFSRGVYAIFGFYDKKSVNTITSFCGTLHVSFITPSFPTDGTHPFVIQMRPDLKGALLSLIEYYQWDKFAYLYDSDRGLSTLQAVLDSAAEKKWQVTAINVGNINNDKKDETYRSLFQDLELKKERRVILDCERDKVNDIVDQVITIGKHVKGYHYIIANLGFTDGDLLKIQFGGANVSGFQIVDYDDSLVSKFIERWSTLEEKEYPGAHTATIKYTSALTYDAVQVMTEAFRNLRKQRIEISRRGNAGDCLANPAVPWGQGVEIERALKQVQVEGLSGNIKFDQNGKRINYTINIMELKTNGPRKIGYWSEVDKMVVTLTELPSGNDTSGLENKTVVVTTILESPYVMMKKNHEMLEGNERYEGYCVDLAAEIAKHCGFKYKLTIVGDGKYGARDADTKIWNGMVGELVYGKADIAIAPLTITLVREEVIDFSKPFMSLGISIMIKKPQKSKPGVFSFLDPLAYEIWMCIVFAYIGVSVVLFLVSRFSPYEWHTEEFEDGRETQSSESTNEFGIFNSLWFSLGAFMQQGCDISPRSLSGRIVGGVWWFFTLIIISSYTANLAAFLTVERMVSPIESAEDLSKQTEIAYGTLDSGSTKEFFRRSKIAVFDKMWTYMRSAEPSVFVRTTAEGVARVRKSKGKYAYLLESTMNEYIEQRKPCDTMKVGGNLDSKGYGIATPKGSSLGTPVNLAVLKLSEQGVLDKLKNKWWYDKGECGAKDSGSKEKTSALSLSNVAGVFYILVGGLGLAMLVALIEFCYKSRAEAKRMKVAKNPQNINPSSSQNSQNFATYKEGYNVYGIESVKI
Description: Binding Affinity of FN1040 on GluA2Qflip. The binding affinity, Kd, of FN1040 for GluA2Qflip was estimated from a homologous competitive binding experiment. In this experiment, intact GluA2Qflip receptors embedded in HEK-293 cell membrane fragments were mixed with ³²P-labeled or hot FN1040 (see RNA 5′-end Labeled with ³²P.). The unlabeled FN1040 (or cold FN1040) was used to compete with the hot FN1040 for the binding to GluA2Qflip receptors. As shown, the normalized radioactivity as a function of the cold FN1040 was determined (FIG. 1c).
Homologous Competitive Binding Assay. FN1040 was transcribed in a transcription reaction mixture with additional 0.4 μM of ³²P-α-ATP (800 Ci/mmol). The ³²P-FN1040 product was separated by 8M urea PAGE and recovered by electroelution method (Elutrap, GE Health). Before mixing with the cell membrane fragments, the RNA was run through a refolding procedure, i.e. 95° C./3′→50° C./30′→room temperature/30′. The binding mixture contained 0.6 nM of GluA2Qflip receptor, 10 ng/μl of yeast tRNA, 10 nM of ³²P-FN1040, and 0 to 1.5 μM of unlabeled FN1040 in the extracelluar buffer. […] The radioactivity remaining on the filter was counted in a scintillation counter (Beckman LS6500). […] Assuming a one-site binding model, we determined the Kd of the aptamer bound to the receptor by fitting the binding data to eq 2⁵² below, […]

[2] = molecular target: T1, GluA2Qflip AMPA receptor (homomeric, …); assay: inhibition; whole-cell current recording, closed-channel (0.1 mM glutamate), -60 mV, 22 C; settings: tags: transiently expressed in HEK-293S cells; chain copies: 4 inferred
Description: Functional Characterization of FN1040 by Whole-Cell Recording. Using whole-cell current recording, we first tested each of the six putative RNA aptamers against GluA2Qflip, the SELEX target. […] To verify this, we tested the aptamer at increasing concentrations against the GluA2Qflip channel expressed in HEK-293 cells (FIG. 1b). On the closed-channel conformation, we observed a linear relationship between the A/A(I) value and the aptamer concentration (FIG. 1b). Using eq 1 (see Data Analysis of Whole-Cell Current Amplitude), we estimated that the inhibition constant, K, for the closed-channel form of GluA2Qflip was 2.3±0.7 μM (FIG. 1b).
Whole-Cell Current Recording. […] For recording of the NMDA channels, the intracellular solution contained (in mM) 140 CsCl, 1 MgCl₂, 0.1 EGTA, and 10 HEPES (pH 7.2 adjusted by Mg(OH)₂) and the extracellular solution contained 2 μM of glycine and (in mM) 135 NaCl, 5.4 KCl, 1.8 CaCl₂, 10 glucose and 5 HEPES (pH 7.2 adjusted by NaOH).¹⁰ The glutamate-induced whole-cell current was recorded using an Axopatch-200B amplifier at a cutoff frequency of 2-20 kHz by a built-in, eight-pole Bessel filter and digitized at 5-50 kHz sampling frequency using a Digidata 1322A from Axon Instruments (Molecular Devices, Sunnyvale, Calif.). […]

B1: FN1040 (ssRNA)
RNA: GGGAGAAUUCAACUGCCAUCUAGGCACGCUACUGUGAGUGUUGUGAUGGCGGCUGAACGAUCGAAACGGAACUGUAGUACUACAAGCUUCUGGACUCGGU
modifications: 2'-F at all A, C and U; G is 2'-OH
- Kd [1]: 20 nM
- Ki [2]: 2300 nM
